Experimental data from publication PMC7719400.

Experiments:
[1] = target: ORFV125 lacking the 30 C-terminal residues (orf virus); test: SEC
[2] = target: ORFV125 lacking the 30 C-terminal residues (orf virus); test: ITC

| Molecule | stoichiometry N [1] | Kd [2] [nM] |
| --- | --- | --- |
| ORFV125 lacking the 30 C-terminal residues (domain or fragment) | 2 | – |
| EEQWAREIGAQLRRMADDLNAQYERR [Puma BH3 motif peptide (human, 130-155)] | – | 1750 |
| VPQDASTKKLSECLKRIGDELDSNMELQ [Bax BH3 motif peptide (human, 50-77, 28-mer)] | – | 682 |
| PSSTMGQVGRQLAIIGDDINRRYDSE [Bak BH3 motif peptide (human, 67-92)] | – | 5800 |
